In this assay the test system is Xenopus oocytes. The experiment in a line: 4-MTB uptake in Xenopus oocytes expressing wildtype or mutant BrGTR2-A2 proteins. The format is cell-based. The following applies: 0.5 mM 4-MTB for one hour.

The source of these data is patent US20140137294A1, “GLUCOSINOLATE TRANSPORTER PROTEIN AND USES THEREOF” (UNIVERSITY OF COPENHAGEN, priority 2010, published 2014).

Changes are numbered by the printed parent chain. In names and notes the source's numbering stands.

B1: BrGTR2-A2: Brassica rapa GTR2-A2 protein, SEQ ID NO: 66 (protein, listed as Brassica rapa)
chain: MERKPLEVESTDHQKPSSAVYDGSATAVDSVEEEVQETKLVYRGWKVMPFIIGNETFEKLGIIGTLSNLLVYLTAVFNMKSITAATIINAFSGTINFGTFVAAFLCDTYFGRYKTLTVAVIACFLGSLVILLTAAVPQLHPAPCGIALTCTGPSGGQIAFLLMGLAFLVVGAGGIRPCNLAFGADQFNPKSESGKRGIDSFFNWYFFTFTFAQILSLTLVVYIQSNVSWTIGLTIPVVLMFLACVIFFAGDKLYVKIKASGSPLASIAQVITVAIKKRGLKAVKQPWVNLYNYYPLNYANSKLKYTDQFRFLDKAAILAPEDKLEADGKPTDPWKLCTMQQVEEVKCIVRVLPIWFASSIYYLTITQQMTYPVFQALQSDRRLGSGGFVIPAATYVVFLMTGMTVFIIIYDRVLVPTLRRITGIDTGITLLQRIGTGIFFAFLSLVVSGFVEERRRTFALTKPTLGMAPRKGEISSMSAMWLIPQLTLAGVAEAFGAIGQMEFYYKQFPENMRSFAGSIFYVGGGVSSYLGSFLIATVHRTTQNSAGGNWLAEDLNKGRLDLFYFMIAGILAVNFAYFLVMSRWYRYKGSDDEVTAYETNGDVIKQQDKNKV
Take B1: the 4-MTB imported result (pH 5, non-injected oocytes no detectable uptake) is given as “about 2.5 nmol 4-MTB per hour per oocyte”.

B2: BrGTR2 (G126R): BrGTR2-A2 protein with Gly to Arg at position 126 of SEQ ID NO: 66 (protein, listed as Brassica rapa)
chain: B1 chain with G126R
For the molecule B2, the “4-MTB uptake activity of mutant BrGTR2-A2 protein versus wildtype” value is reported as “almost no uptake activity”.

B3: BrGTR2 (E192K): BrGTR2-A2 protein with Glu to Lys at position 192 of SEQ ID NO: 66 (protein, listed as Brassica rapa)
chain: B1 chain with E192K
As to B3, the “4-MTB uptake activity of mutant BrGTR2-A2 protein versus wildtype” value was “reduction in glucosinolate uptake”.

B4: BrGTR2 (S359F): BrGTR2-A2 protein with Ser to Phe at position 359 of SEQ ID NO: 66 (protein, listed as Brassica rapa)
chain: B1 chain with S359F
Turning to B4, the “4-MTB uptake activity of mutant BrGTR2-A2 protein versus wildtype” value is recorded as “increased uptake activity”.

B5: BrGTR2 (G145R): BrGTR2-A2 protein with Gly to Arg at position 145 of SEQ ID NO: 66 (protein, listed as Brassica rapa)
chain: B1 chain with G145R
As to B5, the “4-MTB uptake activity of mutant BrGTR2-A2 protein versus wildtype” value is “no significant change in uptake of 4-MTB”.
